Test results published in paper PMC9177663, “Substrate-dependent modulation of the leukotriene A4 hydrolase aminopeptidase activity and effect in a murine model of acute lung inflammation” (Scientific Reports, 2022).

Columns and labels:
[1] = molecular target: T1, leukotriene A4 hydrolase (LTA4H) (Homo sapiens, UniProt P09960); assay: X-ray co-crystal structure of ternary LTA4H:4MDM:OPB-Pro complex, […] Å; format: binding
T1 construct: N-terminal (His)6- and Xpress-tag
T1 sequence (P09960 2-611): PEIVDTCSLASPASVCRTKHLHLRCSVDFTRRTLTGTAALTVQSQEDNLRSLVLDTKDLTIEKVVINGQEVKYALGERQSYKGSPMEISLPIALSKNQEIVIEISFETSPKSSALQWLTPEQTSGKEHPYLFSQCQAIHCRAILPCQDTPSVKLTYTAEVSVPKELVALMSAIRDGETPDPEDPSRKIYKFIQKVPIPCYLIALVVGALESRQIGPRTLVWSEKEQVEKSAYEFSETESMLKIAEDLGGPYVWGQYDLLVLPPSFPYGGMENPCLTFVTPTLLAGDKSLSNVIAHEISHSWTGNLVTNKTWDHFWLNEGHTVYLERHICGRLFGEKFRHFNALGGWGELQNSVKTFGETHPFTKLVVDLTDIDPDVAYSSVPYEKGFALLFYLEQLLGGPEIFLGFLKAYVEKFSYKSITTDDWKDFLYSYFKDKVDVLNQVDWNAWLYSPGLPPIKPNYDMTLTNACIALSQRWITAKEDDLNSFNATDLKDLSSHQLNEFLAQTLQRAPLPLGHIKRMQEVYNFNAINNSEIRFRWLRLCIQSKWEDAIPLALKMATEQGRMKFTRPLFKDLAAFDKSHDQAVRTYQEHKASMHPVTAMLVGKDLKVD

[2] = substrate: O=C(Nc1ccc([N+](=O)[O-])cc1)[C@@H]1CCCN1; assay: Michaelis-Menten hydrolysis kinetics of purified LTA4H at A405 (KM); format: biochemical, Homo sapiens; conditions: Zn2+ LTA4H AP substrate site
[3] = substrate: C[C@H](N)C(=O)Nc1ccc([N+](=O)[O-])cc1; assay: as above; format: biochemical, Homo sapiens; conditions: Zn2+ LTA4H AP substrate site
[4] = substrate: N=C(N)NCCC[C@H](N)C(=O)Nc1ccc([N+](=O)[O-])cc1; assay: purified protein; conditions: Zn2+ LTA4H AP substrate site; cannot bind simultaneously with 4MDM

O=C(O)[C@@H]1CCCN1C(=O)CCC(=O)N1CCCC1 [OPB-Pro, N-(4-oxo-4-pyrrolidinyl-butanoyl)-proline]
X-ray co-crystal structure of ternary LTA4H:4MDM:OPB-Pro complex, 2.8 Å [1]: The OPB-Pro was bound in the AP active site with its prolyl carbonyl group interacting with the zinc atom.

B1: leukotriene A4 hydrolase (LTA4H) (Homo sapiens) (protein)
chain: PEIVDTCSLASPASVCRTKHLHLRCSVDFTRRTLTGTAALTVQSQEDNLRSLVLDTKDLTIEKVVINGQEVKYALGERQSYKGSPMEISLPIALSKNQEIVIEISFETSPKSSALQWLTPEQTSGKEHPYLFSQCQAIHCRAILPCQDTPSVKLTYTAEVSVPKELVALMSAIRDGETPDPEDPSRKIYKFIQKVPIPCYLIALVVGALESRQIGPRTLVWSEKEQVEKSAYEFSETESMLKIAEDLGGPYVWGQYDLLVLPPSFPYGGMENPCLTFVTPTLLAGDKSLSNVIAHEISHSWTGNLVTNKTWDHFWLNEGHTVYLERHICGRLFGEKFRHFNALGGWGELQNSVKTFGETHPFTKLVVDLTDIDPDVAYSSVPYEKGFALLFYLEQLLGGPEIFLGFLKAYVEKFSYKSITTDDWKDFLYSYFKDKVDVLNQVDWNAWLYSPGLPPIKPNYDMTLTNACIALSQRWITAKEDDLNSFNATDLKDLSSHQLNEFLAQTLQRAPLPLGHIKRMQEVYNFNAINNSEIRFRWLRLCIQSKWEDAIPLALKMATEQGRMKFTRPLFKDLAAFDKSHDQAVRTYQEHKASMHPVTAMLVGKDLKVD
notes: N-terminal (His)6- and Xpress-tag
Km [2]: 840 ± 50 µM | kcat [2]: 0.19 ± 0.01 s⁻¹ | kcat/Km [2]: 230 M⁻¹ s⁻¹ | Km [3]: 1600 ± 120 µM | kcat [3]: 1.74 ± 0.07 s⁻¹ | kcat/Km [3]: 1080 M⁻¹ s⁻¹ | Km [4]: 18790 ± 2730 µM | kcat [4]: 24.4 s⁻¹ | kcat/Km [4]: 1300 M⁻¹ s⁻¹
